Experimental data taken from the nanobody polyreactivity screen of Harvey et al. (2022).

experiment: yeast display, Sf9 membrane polyspecificity reagent, FACS + sequencing; frameworks hold sequencing errors
Procedure, shortened: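 Genes from sorted yeast were amplified by colony PCR, read by MiSeq 2 × 250 sequencing and filtered on CDR length. These cells carried a synthetic nanobody library in Saccharomyces cerevisiae BJ5465 and were sorted by FACS into low and high (top ~1%) gates on anti-HA and streptavidin fluorescence. Polyreactivity is labelled according to the gate of origin.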

Row | Sequence | polyreactivity (PSR sort gate)
1 | QVQLVESGGGLLQAGGSLPLSCAASGRIFHQYAMGWYRQAPGKERELVAAISKTGTRTYYADSVKGRFTISRDNAKNTVYFQINSLKPDDTAVYYCNALYWTVYSREYDYWGQATQVTVSS | high polyreactivity
2 | QVQLVESGGGLLQAGGSLPLSCAASGSIFPGYAMGWYRQAPGKERELVATITWSGGSTYYADSVKGRFTISRDNAKNTVYLQMNSLNPADTAVYYCNADSNWYYQWNYYGLYDYWGQATQVTVSS | low polyreactivity
3 | QVQLVESGGGLLQAGGSLRISCAASGIIFRLYDMAWYRQAPGKERELVAAISSGGSTYYADSVKGRFTISRDNAKNTVYLQMNSLKPVDTAVYYCNARVRYKRTGRYGYWGQVTQVTVSS | high polyreactivity
4 | QVQLVESGGGLLQAGGSLRISCAASGSTFGVYAMGWYIPAPGKERELVAVIRRGGGTDYADSVKGRYTISRDNAKNTVYLQLDSLIPVDTAVYSCAATVVRTGYLTLEMDYWGQGTQVTVSA | low polyreactivity
5 | QVQLVESGGGLLQAGGSLRLICAASGSTFSTNAMGWYRQAPGKERELVAAISRSGGSTNYADSVKGRFTISRDNAKNTVYLQMNSLKPEDTAVYYCARYSYRGTNVRYDYWGQGTQVTVSS | high polyreactivity
6 | QVQLVESGGGLLQAGGSLRLSCAASGFIFRRNAMGWYIQAPGKEREFVASISKSSDLTYYADSVKGRFRISRDNAKNTVYLQMNSLKPEVTAVYYCAAKVRQWRHGSYSSQYDYWGQGTQVTVSS | high polyreactivity
7 | QVQLVESGGGLLQAGGSLRLSCAASGFTIDRYAMGWYRQAPGKERELVAAISWGGGSTYYAVSVKGRFTISRDNAKNTVYLQMNSLKPEDTAVYYCAASRGFYHPKYESWGQGTQVTVSS | high polyreactivity
8 | QVQLVESGGGLLQAGGSLRLSCAASGFTIYGYGMGWYRQAPGKERELVAGITARGSSTYYADSVKGRFTISRDNAKNTVYLQMNSLKPEDTAVYYCNSVGARVASATGMEYWGQGTQVTVSS | high polyreactivity
9 | QVQLVESGGGLLQAGGSLRLSCAASGGMFKYNAMGWYRQAPRKARELVPAINYSGGRTYYADSVKGRFTISRDNAKNTVYLQMTSLKPEDTAVDYCNALTRGHTGQPYTYDYWGQGTQVTVSS | high polyreactivity
10 | QVQLVESGGGLLQAGGSLRLSCAASGGTFERNAMGWYRQAPGKERELVAAISISGGRTYYADSVKGRFTISRDNAKNTVYLQMKSLKPEDTAVYFCAAGVGSRIKQVGNDYWGQGTQVTVSS | high polyreactivity
11 | QVQLVESGGGLLQAGGSLRLSCAASGIIFFYYSMGWYRQAPGKERELVAAISSDGSTYYADSVKGRFTSSRDNAKNTVYLQMNSLKPEDTAVDYCAAQYNHWWEYDYWGQGTQVTVSS | low polyreactivity
12 | QVQLVESGGGLLQAGGSLRLSCAASGIIFSDYAMGRYRQAPRKERELVAAITSSGGSTYYADSVKGRFTISRDNAKNTVYLQMNSLKPEDPAVYYCAAQCYDYWYDYDYWGQGTQVTVSS | high polyreactivity
13 | QVQLVESGGGLLQAGGSLRLSCAASGIILYWNTMGWYRQAPGKERELVAAITWSVGRTYYADSVKGRFTISRDNAKNTVYLQMNSLKPEDTAVYYCNAGYDSYSRDYWGQGTQVTVSS | low polyreactivity
14 | QVQLVESGGGLLQAGGSLRLSCAASGITFQGYAMGWYRQAPGKERELVAAITYRGGSTYYADSVKGRFTISRDNAKNTVYLQMNSLKPEDTAVYYCARDHSRHLHPSWLDYWGQGTQVTVSS | high polyreactivity
15 | QVQLVESGGGLLQAGGSLRLSCAASGITFTGYAMGWYRQAPGKERELVAVISETGGSTYADSVKGRFTISRDNAKNTVYLQMNSLKPEDTAVYYCAARLWWPYSTAWAKMDYWGQGTQVTVSS | low polyreactivity
16 | QVQLVESGGGLLQAGGSLRLSCAASGLIFANYAMGWYRQAPGKERELVAAITWSGGTTYYADSVKGRFTISRDNAKNTVYLQMNSLKPEDTAVYYCAAEVPYYQAAEYDYWGQGTQVTVSS | low polyreactivity

Row | Sequence | polyreactivity (PSR sort gate)
17 | QVQLVESGGGLLQAGGSLRLSCAASGNIFYRYAMGWYRQAPGKERELVAAISGNSGNTYYADSVKGRFTISRDNAKNTVYLQIHSLNPEDTAVYYSAAERRAFGHYSGGQGTQVTVSS | high polyreactivity
18 | QVQLVESGGGLLQAGGSLRLSCAASGNTFITNAKGWYRQAPGKERDLVAAISSGGTTYYADSVKGRFTISRDTAKNTVYLQMYSLKPEDTAVYYCATDIHSVHNNRDKHDYDYWGQGTQVTVSS | low polyreactivity
19 | QVQLVESGGGLLQAGGSLRLSCAASGRIFAQYAMGWYRQAPGKEREFDAGISTTGGSTYYADSVKGRFTISRDNAKNTVYLQMNSLKPEETAVYYCAADRRDRSPFYYWGQGTQVTVSS | high polyreactivity
20 | QVQLVESGGGLLQAGGSLRLSCAASGRIFGSYAMGWYRQAPGKERELVAGIRSVGSTNYADSVKGRFTISRDNAKNTVYLQMNSLKPEDTAVYYCAARLWHLSYAGQGGDYWGQGTQVTVSS | low polyreactivity
21 | QVQLVESGGGLLQAGGSLRLSCAASGRIFTWNAMGWYRQAPGKERELVARISSGTPTNYADSLKGRFTISRDNAKNTVYLQMNCLKPEDTAVYYCAAQSRPPFVKQYWWQRDYWGQATQVTVSS | high polyreactivity
22 | QVQLVESGGGLLQAGGSLRLSCAASGRIFVNYAMGWYRQAPGKERELVAVISRSGGGTNYADSVKGRFTISRDNAKNTVYLQMNSLKQEDTAVYYCAADSYYYPYDYWGQGTQVTVSS | high polyreactivity
23 | QVQLVESGGGLLQAGGSLRLSCAASGRIIGWYAMGWYRPAPGKERELVAAISRGGTRTNYADSVKGRFTISRDNAKNTVYLQMNSLKPEDTAVYSCAAGGSWCQNGYWGQGTQVTVSS | high polyreactivity
24 | QVQLVESGGGLLQAGGSLRLSCAASGRTFGFYTMGWYRQAPGKERELVAGISRGGSTTYADSVKGRFTISRDNAKKTVYVEMNSLKQEDTAVYYSNADRSHYWLPYGVRFDYWGLGTQVTVSS | low polyreactivity
25 | QVQLVESGGGLLQAGGSLRLSCAASGRTFHTYAMGWYRHAPGKERELVAAISRSGGSTYYADSVKGRFTISRDNAMNPVYLQMNSLKPEDTAVYYCADTAGYWGQGTQVTVSS | high polyreactivity
26 | QVQLVESGGGLLQAGGSLRLSCAASGRTFKYYAMGWYRQAPGKERELVAAISHSGGSTYYADSVKGRFTISRDNAKNTVYLQMNSLKPEDTAVYYCAADHGDGNYPYYYWGQGTQVTVSS | high polyreactivity
27 | QVQLVESGGGLLQAGGSLRLSCAASGRTFYQYAMGWYRKAPGKDRELVAAITTSGRSTYYADSVKGRITISRDNAKNTVYLQMNRLKPEDTAVYYCNKDLSSTIFDYWGQGTQVTVSS | low polyreactivity
28 | QVQLVESGGGLLQAGGSLRLSCAASGRTIDVYAMGWYTQAPGKERELVAAISWSGGGTYYADSVKGRFTISRDNAKNTVYFQMHSLKAEDTAVYYCAAALTFALDPNRYTYSDYYYWGQGTQVTVSS | low polyreactivity
29 | QVQLVESGGGLLQAGGSLRLSCAASGRTLWIYAMGWYRQAPGKERELVASITTRGGSTYYADSVKGRFTISRDNAKNTVYLQMNSLKPEDTAVYYCARVSGARYTSYDYWGQGTQVTVSS | high polyreactivity
30 | QVQLVESGGGLLQAGGSLRLSCAASGSIFNKYAMGWYRQATGKEREFVAAITQGGGRTYYADSEKVRFTISRDNAKNTDYLQMNILKPEDTAVYYCNYNFNYPYYRYGYWGQGTQVTVSS | high polyreactivity
31 | QVQLVESGGGLLQAGGSLRLSCAASGSIFNYSAMGWYRQAPGTERELVATISSGGNTKYADSVKGRFTISRDNAKNTVYLQMNSLKPEDTAVYYCAARWQHSGYRDRYWYDYWGQGTQVTVSS | low polyreactivity
